Laboratory results as given in patent US8741844B2, “Use of mutated antithrombins for treating or preventing coagulation disorders” (Universite Paris-Sud XI, priority 2007, dated 2014).

System: pentasaccharide bound plasma antithrombin (plasma anti-factor Xa activity)
Assay: Rotachrom heparin anti factor Xa assay in pentasaccharide containing human plasma (competition with plasma antithrombin for pentasaccharide binding)
Assay type: biochemical
Settings: human plasma, pre-incubation 30 min at 37° C.
Description: Anti factor Xa inhibitory activity of mutated antithrombins AT-R393H(SEQ ID NO: 4), AT-Pro394 (SEQ ID NO: 6), AT-ΔR393-5394 (SEQ ID NO: 18), AT-ΔR393 (SEQ ID NO: 8), AT-ΔS394 (SEQ ID NO: 10), AT-N135Q-R393H(SEQ ID NO: 14), AT-N135Q-Pro394 (SEQ ID NO: 16), AT-N135Q-ΔR393-S394 (SEQ ID NO: 24), AT-N135Q-ΔR393 (SEQ ID NO: 20), AT-N135Q-ΔS394 (SEQ ID NO: 22) is measured in pentasaccharide containing plasma. The plasma concentrations of pentasaccharides are defined on the basis on those measured in patients treated by the pentasaccharide under the conditions of a regular (curative) use of this molecule or in patients presenting an overdose of this drug, knowing that the optimal equilibrium concentration is 1.20-1.26 mg/L and the minimal equilibrium concentration is 0.46-0.62 mg/L during a curative pentasaccharide treatment (monograph, Arixtra®).
The anti factor Xa assay is performed using the Rotachrom® heparin method (Stago) adaptated for absorbance reading on a microplate reader (Dynatech MR 5000), or a STA analyser (Stago).
The procedure consists in mixing 30 μl of pentasaccharide containing plasma sample diluted four times in kinetic buffer, with 75 μl of chromogenic substrate (1 mM, provided in Rotachrom® heparin kit). After 4 min incubation, 75 μl of bovine factor Xa (24 nM, Rotachrom® heparin kit) is added to the plasma-substrate mixture. The factor Xa activity is measured a 405 nm absorbance increase, resulting from cleavage of the chromogenic substrate, using a microplate reader (Dynatech MR 5000). The rate constant (k), proportional to anti-factor Xa activity, is obtained by fitting the substrate hydrolysis curve to equation (3) or (3′).
Firstly, the assay is calibrated in citrated (0.105 M) normal human plasma containing pentasaccharide concentrations ranging from 0 to 3 mg/L. A standard curve is generated and anti-factor Xa activity is expressed as mg of pentasaccharide per liter of plasma.
Secondly, to evaluate the anti factor Xa inhibitory activity of mutated antithrombins, the mutated antithrombin (0-0.6 g/L, preferably 0.15-0.6 g/L, final concentration, in kinetic buffer) is pre-incubated with an equal volume of pentasaccharide (0-3 mg/L, preferably 1-3 mg/L) containing plasma samples, during 30 min at 37° C.
Under these conditions, the mutated antithrombin concentration range from one to four times that of the plasma antithrombin level, which is compatible with a therapeutic use of antithrombin. Indeed, very high doses of mutated antithrombin, with a 5 fold increase in plasma antithrombin level, have already been used during clinical trials without side effects (Leitner J M, Firbas C, Mayr F B, Reiter R A, Steinlechner B, Jilma B., Recombinant human antithrombin inhibits thrombin formation and interleukin 6 release in human endotoxemia. Clin Pharmacol Ther. 2006 January; 79(1):23-34). Anti factor Xa inhibitory activity is then evaluated as previously described.
To estimate whether mutated antithrombin can be used as reversal of pentasaccharide in case of over-dosing, AT-N135Q-R393H(SEQ ID NO: 14) and AT-N135Q-Pro394 (SEQ ID NO: 16) are tested in Rotachrom® heparin assay for their ability to restore factor Xa activity. Under conditions of treatment for prevention of venous thromboembolic events, optimal pentasaccharide concentration ranges between 1.2 and 1.26 μg/mL in plasma. To mimic an over-dosing, pentasaccharide is added to human plasma pool at concentration of 3 μg/ml. Rotachrom® heparin assay is then performed by incubation of plasma over-dosed with pentasaccharide in the presence of mutated antithrombin in a ratio 1/1, 2/1, and 4/1 compared to plasma antithrombin concentration (i.e. 0.15, 0.3, 0.6 g/l). In this ex vivo assay, anti-factor Xa activity is proportional to the amount of pentasaccharide bound natural antithrombin present in tested plasma, which amount is directly proportional to pentasaccharide concentration in plasma. […]

effect on anti-Xa activity of pentasaccharide containing plasma sample	Molecule
significant decrease	AT-ΔR393: human antithrombin with deletion of the amino acid at position 393 (protein, listed as Homo sapiens) HGSPVDICTAKPRDIPMNPMCIYRSPEKKATEDEGSEQKIPEATNRRVWELSKANSRFATTFYQHLADSKNDNDNIFLSPLSISTAFAMTKLGACNDTLQQLMEVFKFDTISEKTSDQIHFFFAKLNCRLYRKANKSSKLVSANRLFGDKSLTFNETYQDISELVYGAKLQPLDFKENAEQSRAAINKWVSNKTEGRITDVIPSEAINELTVLVLVNTIYFKGLWKSKFSPENTRKELFYKADGESCSASMMYQEGKFRYRRVAEGTQVLELPFKGDDITMVLILPKPEKSLAKVEKELTPEVLQEWLDELEEMMLVVHMPRFRIEDGFSLKEQLQDMGLVDLFSPEKSKLPGIVAEGRDDLYVSDAFHKAFLEVNEEGSEAAASTAVVIAGSLNPNRVTFKANRPFLVFIREVPLNTIIFMGRVANPCVK
significant decrease	AT-ΔS394: human antithrombin with deletion of the amino acid at position 394 (protein, listed as Homo sapiens) HGSPVDICTAKPRDIPMNPMCIYRSPEKKATEDEGSEQKIPEATNRRVWELSKANSRFATTFYQHLADSKNDNDNIFLSPLSISTAFAMTKLGACNDTLQQLMEVFKFDTISEKTSDQIHFFFAKLNCRLYRKANKSSKLVSANRLFGDKSLTFNETYQDISELVYGAKLQPLDFKENAEQSRAAINKWVSNKTEGRITDVIPSEAINELTVLVLVNTIYFKGLWKSKFSPENTRKELFYKADGESCSASMMYQEGKFRYRRVAEGTQVLELPFKGDDITMVLILPKPEKSLAKVEKELTPEVLQEWLDELEEMMLVVHMPRFRIEDGFSLKEQLQDMGLVDLFSPEKSKLPGIVAEGRDDLYVSDAFHKAFLEVNEEGSEAAASTAVVIAGRLNPNRVTFKANRPFLVFIREVPLNTIIFMGRVANPCVK
